{
  "source": "patent US20180037638A1",
  "key": {"[1]": {"molecular_target": "auto-inducing peptide (AIP) 2 (Staphylococcus aureus)", "test": "cell-based or functional assay"}, "[2]": {"molecular_target": "auto-inducing peptide (AIP) 2 (Staphylococcus aureus)", "test": "SPR, antibody immobilized on CM5 chip, AIP2 as analyte, 1:1 Langmuir fit"}},
  "data": [
    {"binder": "C7 (antibody, V domains shown) VH: EVQLVQSGAEMKKPGASMKVSCKTSGYTFARKYMHWLRQAPGQGLEWMGIINPTGGTKSYAPKFQGRVTMTSDMSTNTVYMELNSLRSEDTAVYYCVSDDEEPVWGQGTMVTVSS VL: QSALTQPPSVSKGLRQTATLTCTGNSNNVGSQGAAWLQQHQGHPPKVLSYRNNNRPSGISERFSASRSGNTASLTITGLQPEDEGDYYCSAWDSSLSAPVFGGGTKLTVL", "values": [
      {"measurement": "Inhibition of AIP2 QS (IC50; nM), agr-driven YFP reporter strain USA100-AH2619", "setting": "[1]", "value": 33.7, "unit": "nM"},
      {"measurement": "Inhibition of AIP2 QS (IC50; nM), agr-driven YFP reporter strain USA100-AH2625", "setting": "[1]", "value": 31.2, "unit": "nM"}
    ]},
    {"binder": "D3 (antibody, V domains shown) VH: EVQLVQSGAEVKKPGSSVKVSCKAYGGTFGSYGVSWVRRAPGQGLEWMGRLIPIFGTRDYAQKFQGRVTLTADESTNTAYMELSSLRSEDTAVYYCARDGDYYGSGSYYGMDVWGQGTLVTVSS VL: SYELTQPPSASGSPGQSVTISCTGTSSDVGGYNYVSWYQQHPGKAPKVMIYEVSKRPSGVSNRFSGSKSGNTASLTISGLQAEDEADYYCSSYTSSSTHVVFGGGTKVTVL", "values": [
      {"measurement": "Kd", "setting": "[2]", "value": 49, "unit": "nM"}
    ]},
    {"binder": "E7 (antibody, V domains shown) VH: EVQLVQSGAEVKKPGASVRVSCKTSGYSFTSYDINWVRQTTGQGLEWMGWVNPTSGSTGYAQKFQGRVTMTANTAINTAYMELRDLRSEDTAVYFCVRDVPFDPWGQGTLVTVSS VL: LQSVLTQPASVSGSPGQSITISCTGTSSDVGKYTFVSWYQQHPGKAPKVMVYEVNKRPLGVSPRFSGSKSGNTAYLTISGLQAEDEADYYCSSYTSSSTVVFGGGTKLTVL", "values": [
      {"measurement": "Inhibition of AIP2 QS (IC50; nM), agr-driven YFP reporter strain USA100-AH2619", "setting": "[1]", "value": 34.2, "unit": "nM"},
      {"measurement": "Inhibition of AIP2 QS (IC50; nM), agr-driven YFP reporter strain USA100-AH2625", "setting": "[1]", "value": 31, "unit": "nM"}
    ]}
  ]
}
